Assay results: US11504441B2, “Radiolabeled compounds targeting the prostate-specific membrane antigen” (PROVINCIAL HEALTH SERVICES AUTHORITY, priority 2019, dated 2022)

Assay: in vivo
Set-up: species or system mice
Conditions: male, NODSCID 1L2RγKO, mouse, iv, total radioactivity

Question: For `O=C(O)CCC[C@H](NC(=O)N[C@@H](CCCCNC(=O)[C@H](Cc1c2ccccc2cc2ccccc12)NC(=O)[C@H]1CC[C@H](CNC(=O)CN2CCN(CC(=O)O)CCN(CC(=O)O)CCN(CC(=O)O)CC2)CC1)C(=O)O)C(=O)O` [177Lu-HTK03149, metal not drawn], which tissue uptake at 1 h (Adrenal glands uptake) is on record?
Answer: 0.35 ± 0.07 %ID/g

Question: And the tissue uptake at 4 h (Adrenal glands uptake)?
Answer: 0.08 ± 0.01 %ID/g

Question: And the tissue uptake at 24 h (Adrenal glands uptake)?
Answer: 0.07 ± 0.02 %ID/g

Question: And the tissue uptake at 72 h (Adrenal glands uptake)?
Answer: 0.12 ± 0.05 %ID/g

Question: And the tissue uptake at 120 h (Adrenal glands uptake)?
Answer: 0.02 ± 0.03 %ID/g

Question: And the tissue uptake at 1 h (Blood uptake)?
Answer: 0.88 ± 0.07 %ID/g

Question: What about the tissue uptake at 4 h (Blood uptake) of the same compound?
Answer: 0.17 ± 0.03 %ID/g

Question: What about the tissue uptake at 24 h (Blood uptake) of the same compound?
Answer: 0.12 ± 0.01 %ID/g

Question: And the tissue uptake at 72 h (Blood uptake)?
Answer: 0.07 ± 0.02 %ID/g

Question: What about the tissue uptake at 120 h (Blood uptake) of the same compound?
Answer: 0.02 ± 0.01 %ID/g

Question: What about the tissue uptake at 1 h (Bone uptake) of the same compound?
Answer: 0.07 ± 0.02 %ID/g

Question: What about the tissue uptake at 4 h (Bone uptake) of the same compound?
Answer: 0.02 ± 0.01 %ID/g

Question: What about the tissue uptake at 24 h (Bone uptake) of the same compound?
Answer: 0.03 %ID/g

Question: What about the tissue uptake at 72 h (Bone uptake) of the same compound?
Answer: 0.03 ± 0.01 %ID/g

Question: And the tissue uptake at 120 h (Bone uptake)?
Answer: 0.01 ± 0.01 %ID/g

Question: And the tissue uptake at 1 h (Brain uptake)?
Answer: 0.02 %ID/g

Question: And the tissue uptake at 4 h (Brain uptake)?
Answer: 0.01 %ID/g

Question: What about the tissue uptake at 24 h (Brain uptake) of the same compound?
Answer: 0.01 %ID/g

Question: What about the tissue uptake at 1 h (Fat uptake) of the same compound?
Answer: 0.14 ± 0.05 %ID/g

Question: What about the tissue uptake at 4 h (Fat uptake) of the same compound?
Answer: 0.02 %ID/g

Question: What about the tissue uptake at 24 h (Fat uptake) of the same compound?
Answer: 0.02 %ID/g

Question: And the tissue uptake at 72 h (Fat uptake)?
Answer: 0.04 ± 0.04 %ID/g

Question: And the tissue uptake at 120 h (Fat uptake)?
Answer: 0.01 ± 0.01 %ID/g

Question: And the tissue uptake at 1 h (Heart uptake)?
Answer: 0.28 ± 0.04 %ID/g

Question: What about the tissue uptake at 4 h (Heart uptake) of the same compound?
Answer: 0.07 ± 0.01 %ID/g

Question: And the tissue uptake at 24 h (Heart uptake)?
Answer: 0.06 %ID/g

Question: What about the tissue uptake at 72 h (Heart uptake) of the same compound?
Answer: 0.06 ± 0.01 %ID/g

Question: And the tissue uptake at 120 h (Heart uptake)?
Answer: 0.03 ± 0.01 %ID/g

Question: And the tissue uptake at 1 h (Intestine uptake)?
Answer: 0.27 ± 0.06 %ID/g

Question: And the tissue uptake at 4 h (Intestine uptake)?
Answer: 0.19 ± 0.07 %ID/g

Question: And the tissue uptake at 24 h (Intestine uptake)?
Answer: 0.09 ± 0.05 %ID/g

Question: And the tissue uptake at 72 h (Intestine uptake)?
Answer: 0.09 ± 0.03 %ID/g

Question: What about the tissue uptake at 120 h (Intestine uptake) of the same compound?
Answer: 0.31 ± 0.48 %ID/g

Question: What about the tissue uptake at 1 h (Kidneys uptake) of the same compound?
Answer: 7.67 ± 1.35 %ID/g

Question: What about the tissue uptake at 4 h (Kidneys uptake) of the same compound?
Answer: 1.67 ± 0.38 %ID/g

Question: And the tissue uptake at 24 h (Kidneys uptake)?
Answer: 0.6 ± 0.11 %ID/g

Question: And the tissue uptake at 72 h (Kidneys uptake)?
Answer: 0.68 ± 0.39 %ID/g

Question: And the tissue uptake at 120 h (Kidneys uptake)?
Answer: 0.28 ± 0.06 %ID/g

Question: And the tissue uptake at 1 h (Lacrimal uptake)?
Answer: 0.02 ± 0.01 %ID/g

Question: What about the tissue uptake at 4 h (Lacrimal uptake) of the same compound?
Answer: 0.03 ± 0.01 %ID/g

Question: What about the tissue uptake at 72 h (Lacrimal uptake) of the same compound?
Answer: 0.01 ± 0.01 %ID/g

Question: What about the tissue uptake at 1 h (Liver uptake) of the same compound?
Answer: 0.26 ± 0.03 %ID/g

Question: And the tissue uptake at 4 h (Liver uptake)?
Answer: 0.11 ± 0.01 %ID/g

Question: And the tissue uptake at 24 h (Liver uptake)?
Answer: 0.1 ± 0.01 %ID/g

Question: What about the tissue uptake at 72 h (Liver uptake) of the same compound?
Answer: 0.13 ± 0.03 %ID/g

Question: And the tissue uptake at 120 h (Liver uptake)?
Answer: 0.08 ± 0.04 %ID/g

Question: What about the tissue uptake at 1 h (Lungs uptake) of the same compound?
Answer: 0.72 ± 0.06 %ID/g

Question: And the tissue uptake at 4 h (Lungs uptake)?
Answer: 0.17 ± 0.01 %ID/g

Question: What about the tissue uptake at 24 h (Lungs uptake) of the same compound?
Answer: 0.12 ± 0.01 %ID/g

Question: What about the tissue uptake at 72 h (Lungs uptake) of the same compound?
Answer: 0.11 ± 0.02 %ID/g

Question: And the tissue uptake at 120 h (Lungs uptake)?
Answer: 0.09 ± 0.08 %ID/g

Question: What about the tissue uptake at 1 h (Muscle uptake) of the same compound?
Answer: 0.18 ± 0.14 %ID/g

Question: What about the tissue uptake at 4 h (Muscle uptake) of the same compound?
Answer: 0.02 ± 0.01 %ID/g

Question: What about the tissue uptake at 24 h (Muscle uptake) of the same compound?
Answer: 0.02 %ID/g

Question: What about the tissue uptake at 72 h (Muscle uptake) of the same compound?
Answer: 0.02 %ID/g

Question: What about the tissue uptake at 120 h (Muscle uptake) of the same compound?
Answer: 0.01 %ID/g

Question: What about the tissue uptake at 1 h (Pancreas uptake) of the same compound?
Answer: 0.17 ± 0.03 %ID/g

Question: What about the tissue uptake at 4 h (Pancreas uptake) of the same compound?
Answer: 0.03 %ID/g

Question: And the tissue uptake at 24 h (Pancreas uptake)?
Answer: 0.03 %ID/g

Question: And the tissue uptake at 72 h (Pancreas uptake)?
Answer: 0.03 %ID/g

Question: What about the tissue uptake at 120 h (Pancreas uptake) of the same compound?
Answer: 0.02 ± 0.01 %ID/g

Question: And the tissue uptake at 1 h (Salivary uptake)?
Answer: 0.23 ± 0.06 %ID/g

Question: And the tissue uptake at 4 h (Salivary uptake)?
Answer: 0.05 ± 0.01 %ID/g

Question: What about the tissue uptake at 24 h (Salivary uptake) of the same compound?
Answer: 0.05 ± 0.01 %ID/g

Question: And the tissue uptake at 72 h (Salivary uptake)?
Answer: 0.05 ± 0.02 %ID/g

Question: And the tissue uptake at 120 h (Salivary uptake)?
Answer: 0.03 ± 0.01 %ID/g

Question: What about the tissue uptake at 1 h (Seminal uptake) of the same compound?
Answer: 0.38 ± 0.47 %ID/g

Question: And the tissue uptake at 4 h (Seminal uptake)?
Answer: 0.04 ± 0.03 %ID/g

Question: And the tissue uptake at 24 h (Seminal uptake)?
Answer: 0.02 %ID/g

Question: What about the tissue uptake at 72 h (Seminal uptake) of the same compound?
Answer: 0.03 ± 0.01 %ID/g

Question: And the tissue uptake at 120 h (Seminal uptake)?
Answer: 0.01 %ID/g

Question: What about the tissue uptake at 1 h (Spleen uptake) of the same compound?
Answer: 0.26 ± 0.05 %ID/g

Question: What about the tissue uptake at 4 h (Spleen uptake) of the same compound?
Answer: 0.09 ± 0.02 %ID/g

Question: What about the tissue uptake at 24 h (Spleen uptake) of the same compound?
Answer: 0.09 ± 0.01 %ID/g

Question: And the tissue uptake at 72 h (Spleen uptake)?
Answer: 0.14 ± 0.06 %ID/g

Question: What about the tissue uptake at 120 h (Spleen uptake) of the same compound?
Answer: 0.13 ± 0.08 %ID/g

Question: What about the tissue uptake at 1 h (Stomach uptake) of the same compound?
Answer: 0.1 ± 0.02 %ID/g

Question: What about the tissue uptake at 4 h (Stomach uptake) of the same compound?
Answer: 0.05 ± 0.02 %ID/g

Question: What about the tissue uptake at 24 h (Stomach uptake) of the same compound?
Answer: 0.13 ± 0.11 %ID/g

Question: What about the tissue uptake at 72 h (Stomach uptake) of the same compound?
Answer: 0.14 ± 0.1 %ID/g

Question: What about the tissue uptake at 120 h (Stomach uptake) of the same compound?
Answer: 0.24 ± 0.31 %ID/g

Question: And the tissue uptake at 1 h (Tail uptake)?
Answer: 0.52 ± 0.13 %ID/g

Question: What about the tissue uptake at 4 h (Tail uptake) of the same compound?
Answer: 0.2 ± 0.14 %ID/g

Question: And the tissue uptake at 24 h (Tail uptake)?
Answer: 0.14 ± 0.14 %ID/g

Question: And the tissue uptake at 72 h (Tail uptake)?
Answer: 0.08 ± 0.02 %ID/g

Question: What about the tissue uptake at 120 h (Tail uptake) of the same compound?
Answer: 0.04 ± 0.01 %ID/g

Question: What about the tissue uptake at 1 h (Testes uptake) of the same compound?
Answer: 0.26 ± 0.02 %ID/g

Question: And the tissue uptake at 4 h (Testes uptake)?
Answer: 0.06 %ID/g

Question: What about the tissue uptake at 24 h (Testes uptake) of the same compound?
Answer: 0.05 %ID/g

Question: And the tissue uptake at 72 h (Testes uptake)?
Answer: 0.05 ± 0.01 %ID/g

Question: And the tissue uptake at 120 h (Testes uptake)?
Answer: 0.03 ± 0.01 %ID/g

Question: And the tissue uptake at 1 h (Thyroid uptake)?
Answer: 0.27 ± 0.02 %ID/g

Question: What about the tissue uptake at 4 h (Thyroid uptake) of the same compound?
Answer: 0.07 ± 0.01 %ID/g

Question: What about the tissue uptake at 24 h (Thyroid uptake) of the same compound?
Answer: 0.06 %ID/g

Question: And the tissue uptake at 72 h (Thyroid uptake)?
Answer: 0.08 ± 0.01 %ID/g

Question: What about the tissue uptake at 120 h (Thyroid uptake) of the same compound?
Answer: 0.04 ± 0.01 %ID/g

Question: What about the tissue uptake at 1 h (Tumor uptake) of the same compound?
Answer: 14 ± 2.16 %ID/g

Question: What about the tissue uptake at 4 h (Tumor uptake) of the same compound?
Answer: 20.9 ± 2.99 %ID/g

Question: And the tissue uptake at 24 h (Tumor uptake)?
Answer: 13.8 ± 2.88 %ID/g

Question: And the tissue uptake at 72 h (Tumor uptake)?
Answer: 17.1 ± 4.7 %ID/g

Question: And the tissue uptake at 120 h (Tumor uptake)?
Answer: 16.4 ± 11 %ID/g
